Data from the supplement of paper PMC5998384.

Legend:
[1] = system: HeLa Kyoto; assay: solubility in G1/S (NP-40 vs SDS abundance) (log2 ratio); higher = more soluble; details: cell cycle stage: G1/S
[2] = system: HeLa Kyoto; assay: melting temperature (median over replicates), in situ; higher = more thermally stable
[3] = system: HeLa Kyoto; assay: thermal stability score vs G1/S (z-score of summed log2 fold changes over temperatures); higher = more thermally stable than in G1/S
[4] = system: HeLa Kyoto; assay: solubility change mitosis vs G1/S (difference of NP-40 vs SDS log2 ratios) (log2 ratio difference); higher = more soluble in mitosis
[5] = cell cycle stage: early G1 (4.5 h after nocodazole release)
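Throughout, for melting temperature (median over replicates), in situ: HeLa Kyoto cells synchronized by double thymidine or nocodazole block, proteins quantified by TMT10plex mass spectrometry, three independent biological replicates.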
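Throughout, for solubility change mitosis vs G1/S (difference of NP-40 vs SDS log2 ratios): synchronized HeLa Kyoto cells (double thymidine block for G1/S, nocodazole release for mitosis), protein amounts in NP-40 versus SDS lysates quantified by mass spectrometry, three biological replicates.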
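Throughout, for solubility in G1/S (NP-40 vs SDS abundance): HeLa Kyoto cells arrested at G1/S by double thymidine block, proteins quantified by TMT10plex mass spectrometry in mild NP-40 versus SDS extracts, three biological replicates.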
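Throughout, for thermal stability score vs G1/S (z-score of summed log2 fold changes over temperatures): synchronized HeLa Kyoto cells, proteins quantified by TMT10plex mass spectrometry, three biological replicates, mitosis taken 0.5 h after nocodazole release, G1/S directly after double thymidine block.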

Row | Sequence | solubility in G1/S (log2) [1] | melting temperature ([2]; cell cycle stage: G1/S) [°C] | melting temperature ([2]; cell cycle stage: mitosis) [°C] | thermal stability score [3, 5] | thermal stability score ([3]; cell cycle stage: mitosis) | solubility change mitosis (log2) [4]
1 | MASCASIDIEDATQHLRDILKLDRPAGGPSAESPRPSSAYNGDLNGLLVPDPLCSGDSTSANKTGLRTMPPINLQEKQVICLSGDDSSTCIGILAKEVEIVASSDSSISSKARGSNKVKIQPVAKYDWEQKYYYGNLIAVSNSFLAYAIRAANNGSAMVRVISVSTSERTLLKGFTGSVADLAFAHLNSPQLACLDEAGNLFVWRLALVNGKIQEEILVHIRQPEGTPLNHFRRIIWCPFIPEESEDCCEESSPTVALLHEDRAEVWDLDMLRSSHSTWPVDVSQIKQGFIVVKGHSTCLSEGALSPDGTVLATASHDGYVKFWQIYIEGQDEPRCLHEWKPHDGRPLSCLLFCDNHKKQDPDVPFWRFLITGADQNRELKMWCTVSWTCLQTIRFSPDIFSSVSVPPSLKVCLDLSAEYLILSDVQRKVLYVMELLQNQEEGHACFSSISEFLLTHPVLSFGIQVVSRCRLRHTEVLPAEEENDSLGADGTHGAGAMESAAGVLIKLFCVHTKALQDVQIRFQPQLNPDVVAPLPTHTAHEDFTFGESRPELGSEGLGSAAHGSQPDLRRIVELPAPADFLSLSSETKPKLMTPDAFMTPSASLQQITASPSSSSSGSSSSSSSSSSSLTAVSAMSSTSAVDPSLTRPPEELTLSPKLQLDGSLTMSSSGSLQASPRGLLPGLLPAPADKLTPKGPGQVPTATSALSLELQEVEPLGLPQASPSRTRSPDVISSASTALSQDIPEIASEALSRGFGSSAPEGLEPDSMASAASALHLLSPRPRPGPELGPQLGLDGGPGDGDRHNTPSLLEAALTQEASTPDSQVWPTAPDITRETCSTLAESPRNGLQEKHKSLAFHRPPYHLLQQRDSQDASAEQSDHDDEVASLASASGGFGTKVPAPRLPAKDWKTKGSPRTSPKLKRKSKKDDGDAAMGSRLTEHQVAEPPEDWPALIWQQQRELAELRHSQEELLQRLCTQLEGLQSTVTGHVERALETRHEQEQRRLERALAEGQQRGGQLQEQLTQQLSQALSSAVAGRLERSIRDEIKKTVPPCVSRSLEPMAGQLSNSVATKLTAVEGSMKENISKLLKSKNLTDAIARAAADTLQGPMQAAYREAFQSVVLPAFEKSCQAMFQQINDSFRLGTQEYLQQLESHMKSRKAREQEAREPVLAQLRGLVSTLQSATEQMAATVAGSVRAEVQHQLHVAVGSLQESILAQVQRIVKGEVSVALKEQQAAVTSSIMQAMRSAAGTPVPSAHLDCQAQQAHILQLLQQGHLNQAFQQALTAADLNLVLYVCETVDPAQVFGQPPCPLSQPVLLSLIQQLASDLGTRTDLKLSYLEEAVMHLDHSDPITRDHMGSVMAQVRQKLFQFLQAEPHNSLGKAARRLSLMLHGLVTPSLP [EDC4] | 0.013 | 49.6 | 50.1 | 0.116 | 2.4 | -0.158
2 | MASDEGKLFVGGLSFDTNEQSLEQVFSKYGQISEVVVVKDRETQRSRGFGFVTFENIDDAKDAMMAMNGKSVDGRQIRVDQAGKSSDNRSRGYRGGSAGGRGFFRGGRGRGRGFSRGGGDRGYGGNRFESRSGGYGGSRDYYSSRSQSGGYSDRSSGGSYRDSYDSYATHNE [CIRBP] | -0.000215 | 52.8 | 53 | -0.492 | -2.78 | 0.112
3 | MASEDIAKLAETLAKTQVAGGQLSFKGKSLKLNTAEDAKDVIKEIEDFDSLEALRLEGNTVGVEAARVIAKALEKKSELKRCHWSDMFTGRLRTEIPPALISLGEGLITAGAQLVELDLSDNAFGPDGVQGFEALLKSSACFTLQELKLNNCGMGIGGGKILAAALTECHRKSSAQGKPLALKVFVAGRNRLENDGATALAEAFRVIGTLEEVHMPQNGINHPGITALAQAFAVNPLLRVINLNDNTFTEKGAVAMAETLKTLRQVEVINFGDCLVRSKGAVAIADAIRGGLPKLKELNLSFCEIKRDAALAVAEAMADKAELEKLDLNGNTLGEEGCEQLQEVLEGFNMAKVLASLSDDEDEEEEEEGEEEEEEAEEEEEEDEEEEEEEEEEEEEEPQQRGQGEKSATPSRKILDPNTGEPAPVLSSPPPADVSTFLAFPSPEKLLRLGPKSSVLIAQQTDTSDPEKVVSAFLKVSSVFKDEATVRMAVQDAVDALMQKAFNSSSFNSNTFLTRLLVHMGLLKSEDKVKAIANLYGPLMALNHMVQQDYFPKALAPLLLAFVTKPNSALESCSFARHSLLQTLYKV [RANGAP1] | 0.166 | 48.6 | 49 | 0.55 | 2.63 | 0.199
4 | MASEELQKDLEEVKVLLEKATRKRVRDALTAEKSKIETEIKNKMQQKSQKKAELLDNEKPAAVVAPITTGYTVKISNYGWDQSDKFVKIYITLTGVHQVPTENVQVHFTERSFDLLVKNLNGKSYSMIVNNLLKPISVEGSSKKVKTDTVLILCRKKVENTRWDYLTQVEKECKEKEKPSYDTETDPSEGLMNVLKKIYEDGDDDMKRTINKAWVESREKQAKGDTEF [CACYBP] | 0.412 | 52.2 | 52.2 | 0.00133 | -1.11 | -0.0888
5 | MASEQDVRARLQRAGQEHLLRFWAELAPEPRAALLAELALLEPEALREHCRRAAEACARPHGPPPDLAARLRPLPPERVGRASRSDPETRRRWEEEGFRQISLNKVAVLLLAGGQGTRLGVTYPKGMYRVGLPSRKTLYQLQAERIRRVEQLAGERHGTRCTVPWYVMTSEFTLGPTAEFFREHNFFHLDPANVVMFEQRLLPAVTFDGKVILERKDKVAMAPDGNGGLYCALEDHKILEDMERRGVEFVHVYCVDNILVRLADPVFIGFCVLQGADCGAKVVEKAYPEEPVGVVCQVDGVPQVVEYSEISPETAQLRASDGSLLYNAGNICNHFFTRGFLKAVTREFEPLLKPHVAVKKVPYVDEEGNLVKPLKPNGIKMEKFVFDVFRFAKNFAALEVLREEEFSPLKNAEPADRDSPRTARQALLTQHYRWALRAGARFLDAHGAWLPELPSLPPNGDPPAICEISPLVSYSGEGLEVYLQGREFQSPLILDEDQAREPQLQES [UAP1L1] | 0.127 | 52.3 | 53.1 | -0.582 | -0.781 | -0.0981
6 | MASERLPNRPACLLVASGAAEGVSAQSFLHCFTMASTAFNLQVATPGGKAMEFVDVTESNARWVQDFRLKAYASPAKLESIDGARYHALLIPSCPGALTDLASSGSLARILQHFHSESKPICAVGHGVAALCCATNEDRSWVFDSYSLTGPSVCELVRAPGFARLPLVVEDFVKDSGACFSASEPDAVHVVLDRHLVTGQNASSTVPAVQNLLFLCGSRK [PDDC1] | 0.169 | 55 | 55.4 | -1.01 | -0.729 | -0.0189
